# According to publication PMC10976963:
# Target: actin of the cytoskeleton of living U2OS cells (human (endogenous in U2OS)) (UniProt P60709)
# Assay: FRAP; fluorescence recovery after photobleaching at lamellipodia of living U2OS cells expressing mEGFP-DARPins or mCherry-LifeAct, 37 °C, single-exponential fit
substance,measurement,value
mCherry-LifeAct (peptide),FRAP half-recovery time (τ1/2) at lamellipodia,0.47 s
